Tested on: BT474 orthotopic xenograft tumors
Assay: Anti-tumor therapy in BT474 orthotopic xenograft breast tumor mouse model
Type: in vivo, athymic nude mice
Settings: for tumor lung metastasis: H&E staining of whole lung
Procedure: FIG. 5A) BT474 orthotopic xenograft mouse models were treated with control pRNA-HER2apt-siScram or pRNA-HER2apt-siMED1 (4 mg/Kg) once a week, in combination with vehicle or tamoxifen (TAM, 0.5 mg/mice/day) 5 days per week. Tumor sizes were measured every three days. FIG. 5B) After three weeks, mice were i.p. injected with D-luciferin, and representative in vivo images of BT474 tumors were recorded using IVIS Lumina imaging system. FIG. 5C) Average weight of the tumors excised at the end of the treatment, and FIG. 5D) the representative photos of tumors. FIG. 5E and FIG. 5F) MED1 expression in the BT474 tumors was examined using IHC staining and FIG. 5G) immunoblotting. FIG. 5H) The expression of Ki-67 in tumor tissues was analyzed using IHC staining, and FIG. 5I) the percentage of Ki-67 positive cells was counted. Scale bar: 100 μm.
FIG. 6A) Whole lung tissues were fixed, embedded, and sectioned for H&E staining, and FIG. 6B) metastasis foci in the whole lung tissues were then counted. Arrow indicates the metastasis foci. Scale bar: 100 μm. FIG. 6C) After digesting tumor tissues with trypsin and 0.1% collagenase, tumor cells were stained for CD44 and CD24, and FIG. 6D) analyzed for CD44^+CD24^−/low stem cell population using flow cytometry. FIG. 6E) Total RNA in the tumor tissues was extracted using TRIZOL reagent, and the expression of TFF-1, FIG. 6F) c-Myc, FIG. 6G) cyclin D1, and FIG. 6H) MMP-9 were determined by real-time PCR.
Migration and metastasis assay. The 8-μm-pore-size polycarbonate membrane, which separates the two chambers of a 6.5-mm Transwell (Costar), was coated with or without 1:8 DMEM-diluted Matrigel (Corning). Transwell assay was performed as previously described.^57 Briefly, BT474 cells were treated with pRNAs alone or together with 4-hydroxy-tamoxifen (4-OHT) for 48 h and starved with serum-free DMEM containing 0.2% BSA overnight. On the next day, cells were collected and 2×10^5 cells were seeded to the upper chamber of Transwell. The lower chamber was filled with 600 μL DMEM medium containing 10% FBS. After incubation at 37° C. for 24 h, cells on the membranes were fixed and stained with 0.1% crystal violet in 20% ethanol solution. Cells at top side of membranes were removed completely, and cells at the bottom side were examined with an Olympus SZX12 microscope and counted. • Mammosphere culture and breast cancer stem cell analyses. BT474 cells were treated with pRNAs for 48 h. Then, cells were suspended in DMEM/F12 medium supplemented with 1×B27 (Thermo Fisher), 20 ng/mL bFGF and 20 ng/mL EGF (R&D), and added into 24-well ultralow attachment plates. After treatment with or without 1 μM 4-OHT for 7 days, mammosphere formation was recorded using an Axiovert S100 TV inverted microscope (Zeiss). Xenograft tumor tissues were cut into small pieces and digested with trypsin and collagenase at 37° C. for 1 h, and tumor cells were collected and rinsed with pre-cold PBS. All cells were stained with FITC-conjugated anti-CD44 antibody and PE-conjugated anti-CD24 antibody (BD Pharmingen) in the dark on ice for 30 min. After resuspension with 0.5 mL PBS buffer, CD44^+/CD24^−/low cell population was analyzed by flow cytometry. • Orthotopic xenograft breast tumor mouse model, in vivo imaging and anti-tumor therapy. Six-week-old female athymic nude mice were purchased from Charles River Laboratories, and all animal procedures were performed under IACUC-approved protocols at the University of Cincinnati. Athymic nude mice were orthotopically injected with 1×10^7 BT474-luc cells mixed with matrigel into the fat pads of the forth pair of mammary glands. When the tumor sizes reached 100-150 mm^3, the mice were randomly divided into four groups (4/group) and intravenously (i.v.) injected with pRNAs (4 mg/Kg) once a week for three weeks. For tamoxifen treatments, 0.5 mg tamoxifen (Sigma) dissolved in sesame oil was intraperitoneally (i.p.) injected into mice 5 days a week for three weeks. […]

B1: pRNA-HER2apt-siMED1: 3-WJ pRNA nanoparticle bearing a HER2-targeting RNA aptamer and two different MED1 siRNAs; strands p1 SEQ ID NO: 3, p2 SEQ ID NO: 4 (nucleic acid)
chain 1: GGACAGUGAAAGUGAGUCAAAGGAUCAAUCAUGGCCAAAGAUGUUACUUUGAGAGCCUU
chain 2: GGCUCUCAAAGUAACAUCUAAGGCCAUGUGUAUGUGGGGGGAGGACGAUGCGGUCUGCUGUGCUUGAUAUGCCCCAGACGACUCGCCCCCCACAUACUUUGUUGAUCCAAUGACUCACUUUCACUGUCCUU
modifications: 2'-F modification; third strand may lack entry; pRNA-HER2apt-siMED1, p1; pRNA-HER2apt-siMED1, p2
- Ki-67 expression in tumor sections (IHC staining): dramatic reduction
- expression of MED1 in tumors (IHC staining and western blot of BT474 tumors): significantly depleted
- CD44^+CD24^−/low cancer stem cells in breast tumors (combined with tamoxifen, flow cytometry): almost complete depletion
- tumor lung metastasis (in combination with tamoxifen): totally eradicated
- tumor growth (pRNA 4 mg/Kg i.v. once a week in combination with tamoxifen 0.5 mg i.p. 5 days a week, three weeks): almost completely suppressed tumor growth
- tumor burden (pRNA alone, 4 mg/Kg i.v. once a week, three weeks): reduced tumor burden
- CD44^+CD24^−/low cancer stem cells in the breast tumors (pRNA alone, flow cytometry): significantly reduced
- tumor lung metastasis (single agent): totally eradicated
- tumor growth (single agent, pRNA 4 mg/Kg i.v. once a week or tamoxifen 0.5 mg i.p. 5 days a week, three weeks): significantly inhibited tumor growth

From patent publication US11110182B2, “Multifunctional RNA nanoparticles and methods for treating cancer and therapeutic resistant cancer” (University of Cincinnati, priority 2016, dated 2021)
